# B1: C-CDNF: Human C-CDNF, SEQ ID NO: 4: C-terminal domain of mature CDNF, amino acid 101 to 161; recombinant, Histidine tag at C-terminus (protein, listed as Homo sapiens)
# chain: KYEKTLDLASVDLRKMRVAELKQILHSWGEECRACAEKTDYVNLIQELAPKYAATHPKTEL
# Experiments:
# ER stressed SCG neurons = experiment: Survival of tunicamycin ER-stressed SCG neurons microinjected with recombinant protein; type: cell-based, mouse; conditions: recombinant protein microinjected into the cytoplasm; tunicamycin 2 μM; counted after 3 days
# Protocol: (§1) Non-neuronal cells were removed by extensive preplating. Almost pure neurons were cultured in polyornithine/laminin (Sigma)-coated 35-mm plastic dishes in the small-size standard microislands in the Neurobasal medium and B27 supplement (Invitrogen/Gibco) in the presence of 30 ng/ml mouse nerve growth factor (NGF) (Promega) for 5-6 days. NGF was deprived by extensive washing and addition of the function-blocking anti-NGF antibodies (Roche). The neurons were pressure-microinjected with special neuronal microinjection equipment (Hellman et al., 2011; Hamner et al., 2001; Lindholm et al., 2002; Sun et al., 2001; Yu et al., 2003)(Sun et al., 2001; Sun et al., 2003). For the survival assay, all neurons on the microislands were counted in the beginning (initial number) and the end (three days) of the experiment and expressed as % of initial.
# (§2) Microinjection of the sympathetic neurons was performed as described earlier (Yu, L. Y., Jokitalo, E., Sun, Y. F., Mehlen, P., Lindholm, D., Saarma, M., and Arumäe, U. (2003) J. Cell Biol. 163, 987-997). […] Next day tunicamycin (2 μM) was added, and after 3 days the living fluorescent neurons were counted. Living fluorescent (EGFP-expressing or Dextran Texas Red-containing) neurons were “blindly” counted three days later and expressed as percent of initial living fluorescent neurons counted 2-3 hours after microinjection. […]
# [1] = rat, in vivo, sc
# Protocol: ^125I-CDNF, ^125I C-CDNF or ^125I C-MANF (all proteins at 106 cpm in 10 μl) were injected subcutaneously to adult male Wistar rats. Animals were perfused with PBS 2 hours later. Radioactivity was analyzed in different brain regions by gamma counter. Data are shown as mean±SEM. The differences between groups were analyzed ANOVA followed by Tukey-Kramers post hoc test.
# SOD1-G93A mice = experiment: SOD1-G93A mouse ALS model, single intracerebroventricular injection; type: in vivo; conditions: females, vs PBS
# Source text: Transgenic SOD1 G93A mice served as a transgenic mouse model for ALS in this study. Transgenic mice containing various human SOD1 mutations develop progressive neurodegeneration and motoneuron (MN) death, providing an animal model that has been commonly used for preclinical trials and that has greatly contributed to the understanding of FALS pathogenesis (Gurney et al., 1994). […] In these mice hind limb weakness and tremulous movement appear as initial symptoms at 8-10 week of age, followed by major symptoms such as progressive motor paralysis and neurogenic amyotrophy (Shibata 2001). These mice subsequently show disability of gait, eating and drinking and die within some weeks, usually at 14-16 week of age. […] Transgenic expression was analyzed by DNA tail tests and PCR, using specific oligonucleotides and conditions as done previously by others (see homepage Jackson Lab). […]
# Mice were then evaluated for signs of disease and body weight changes twice a week. […]
# Clinical scoring for SOD1 mice was done using instructions from Jackson laboratory. […] Animals were scored by lifting them gently by the base of their tails and observing them for tremors, stiffness and their ability to extend their limbs. […]
# [2] = tested on: ER stressed superior cervical ganglia (SCG) sympathetic neurons; experiment: Survival of tunicamycin ER-stressed SCG neurons microinjected with expression plasmids; type: cell-based, mouse; conditions: expressed from microinjected plasmids; tunicamycin 2 μM; counted after three days
# Protocol: as §1, §2
molecule,measurement,setting,value
B1,"living fluorescent neurons, percentage of initial neurons",ER stressed SCG neurons,rescue ER stressed SCG neurons
same,blood-brain-barrier penetration (radioactivity in brain),[1],capable of penetrating neuronal cell membrane as well as the blood-brain-barrier
same,clinical score,SOD1-G93A mice; single i.c.v. 3.75 μg at 13 weeks of age,statistically significantly better clinical scores
same,rotarod latency to fall,"SOD1-G93A mice; single i.c.v. 3.75 μg, 4-40 rpm, cut-off 4 min",improves the motor behavior
same,"living fluorescent neurons, percentage of initial neurons",[2],rescue ER stressed superior cervical ganglia (SCG) sympathetic neurons
